Measured values as given in US20260055182A1.

How the values were obtained:
[1] = molecular target: human C1q purified protein (human) (UniProt P02745); assay: SPR (Biacore T200), C1q reversibly immobilised, antibody as analyte
[2] = molecular target: human FcyRIIIA/CD16a (V176) (human) (UniProt P08637); assay: SPR (Biacore 8K+), receptor reversibly immobilised, antibody as analyte
human FcyRI/CD64 (human) = human FcyRI/CD64 (human) (UniProt P12314); assay: as above
[3] = molecular target: human FcyRIIA/CD32a (H167) (human) (UniProt P12318); assay: as above
[4] = molecular target: human FcRn / FCGRT&B2M (human) (UniProt P55899); assay: SPR (Biacore T200), pH 6.0, FcRn reversibly immobilised, antibody as analyte
human FcRn / FCGRT&B2M (human), sequence (P55899 24-297 limits assumed, chain 1 of 2): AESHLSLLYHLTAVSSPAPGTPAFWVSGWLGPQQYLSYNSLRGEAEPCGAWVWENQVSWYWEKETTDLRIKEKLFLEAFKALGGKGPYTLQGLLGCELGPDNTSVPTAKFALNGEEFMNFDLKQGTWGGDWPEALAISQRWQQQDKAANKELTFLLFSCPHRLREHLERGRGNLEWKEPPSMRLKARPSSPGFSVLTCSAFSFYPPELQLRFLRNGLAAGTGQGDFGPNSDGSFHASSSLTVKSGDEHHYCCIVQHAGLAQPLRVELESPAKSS
human FcRn / FCGRT&B2M (human), sequence (P61769 21-119 limits assumed, chain 2 of 2, further chain): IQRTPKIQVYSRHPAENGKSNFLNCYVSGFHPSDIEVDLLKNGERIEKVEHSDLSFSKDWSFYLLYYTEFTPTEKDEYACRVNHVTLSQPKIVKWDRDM

human FcyRI/CD64 (human), sequence (P12314 16-288 limits assumed): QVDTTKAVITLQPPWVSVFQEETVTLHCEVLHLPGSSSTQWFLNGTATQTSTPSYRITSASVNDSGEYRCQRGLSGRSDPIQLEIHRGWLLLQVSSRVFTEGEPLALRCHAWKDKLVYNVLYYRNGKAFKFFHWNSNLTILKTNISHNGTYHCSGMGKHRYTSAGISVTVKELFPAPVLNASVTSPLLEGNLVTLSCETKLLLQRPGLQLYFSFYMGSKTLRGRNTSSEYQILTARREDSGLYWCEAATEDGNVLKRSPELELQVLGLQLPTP
human FcyRIIA/CD32a (H167) (human), sequence (P12318 36-218): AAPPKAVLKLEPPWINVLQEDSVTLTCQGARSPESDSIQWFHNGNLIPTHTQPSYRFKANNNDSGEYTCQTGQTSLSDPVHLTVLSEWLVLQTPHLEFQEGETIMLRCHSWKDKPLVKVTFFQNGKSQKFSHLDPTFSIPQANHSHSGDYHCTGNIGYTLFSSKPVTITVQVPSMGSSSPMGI
human FcyRIIIA/CD16a (V176) (human), sequence (P08637 17-208 F176V limits assumed): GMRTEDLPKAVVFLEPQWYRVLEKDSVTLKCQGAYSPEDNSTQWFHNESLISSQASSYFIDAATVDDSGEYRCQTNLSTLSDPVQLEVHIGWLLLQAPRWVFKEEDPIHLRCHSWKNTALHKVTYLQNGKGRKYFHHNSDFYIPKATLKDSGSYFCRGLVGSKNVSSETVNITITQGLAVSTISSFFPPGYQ
human C1q purified protein (human), sequence (P02745 23-245, chain 1 of 3): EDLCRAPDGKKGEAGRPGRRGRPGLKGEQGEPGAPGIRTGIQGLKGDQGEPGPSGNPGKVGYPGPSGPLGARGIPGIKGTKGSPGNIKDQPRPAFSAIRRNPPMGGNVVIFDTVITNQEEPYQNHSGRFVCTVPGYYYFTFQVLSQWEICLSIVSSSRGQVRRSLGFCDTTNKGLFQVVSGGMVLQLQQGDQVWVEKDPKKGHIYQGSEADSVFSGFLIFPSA
human C1q purified protein (human), sequence (P02746 28-253, chain 2 of 3, further chain): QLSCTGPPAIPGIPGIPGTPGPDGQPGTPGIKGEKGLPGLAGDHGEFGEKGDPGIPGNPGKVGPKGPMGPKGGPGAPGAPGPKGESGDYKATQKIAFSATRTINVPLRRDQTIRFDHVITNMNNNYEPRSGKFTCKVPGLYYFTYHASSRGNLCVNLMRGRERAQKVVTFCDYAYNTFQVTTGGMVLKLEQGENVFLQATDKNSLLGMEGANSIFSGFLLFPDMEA
human C1q purified protein (human), sequence (P02747 29-245, chain 3 of 3, further chain): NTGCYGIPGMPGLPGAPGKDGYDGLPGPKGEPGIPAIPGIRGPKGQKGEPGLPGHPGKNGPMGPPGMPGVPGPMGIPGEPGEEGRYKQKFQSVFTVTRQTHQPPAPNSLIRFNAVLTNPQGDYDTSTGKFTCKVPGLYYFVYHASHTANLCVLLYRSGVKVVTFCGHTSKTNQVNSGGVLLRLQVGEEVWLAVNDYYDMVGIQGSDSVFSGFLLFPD

Mabthera (Rituximab) (antibody)
Kd [1]: 129 nM | Kd [2]: 57.9 nM | Kd (human FcyRI/CD64 (human)): 0.0407 nM | Kd [3]: 324 nM | Kd [4]: 384 nM
